# In patent publication US10753947B2, “Methods for screening voltage-gated proteins” (D.E. Shaw Research, LLC, priority 2012, dated 2020):
# Read-outs that look alike come from different tables or passages of the source.
# Columns and labels:
# [1] = biological target: Kv1.3 (Homo sapiens, UniProt P22001); conditions: cited from earlier work
# [2] = test system: Kv2.1 R293S/R294S/R300S (R-1S/R0S/R2S); experiment: Omega currents (Iω) of Kv2.1 R-1S/R0S/R2S in Xenopus oocytes, two electrode voltage-clamp; format: cell-based, human
# Text: The coding cDNAs of KV2.1 “wild-type” (hereinafter WT) base construct (hKv2.1-m7-c3 is human Kv2.1, residues 1-858, mutated to confer AgTx2 sensitivity and to remove extracellular cysteine residues) was synthesized (Entelchon GmbH) and cloned into the high expression vector pBSTA.
# Mutations Kv2.1 R294N (hereinafter R0N), Kv2.1 R300S (hereinafter R2S), Kv2.1 R294C/R300S (hereinafter R0C/R2S), Kv2.1 R293S/R294S (hereinafter R-1S/R0S), Kv2.1 R293S/R294C (hereinafter R-1S/R0C), Kv2.1 R293S/R294S/R300S (hereinafter R-1S/R0S/R2S), Kv2.1 R293S/R294C/R300S (hereinafter R-1S/R0C/R2S) were introduced using the QuikChange® Lightning Site-Directed Mutagenesis Kit (Stratagene) with mutagenic primers according to the manufacturer's instructions. All constructs were checked by restriction site mapping and sequencing.
# Transcripted cRNA was produced using the mMessage mMachine kit (Ambion Inc.). Two to four days past injection of cRNA into stage V-VI Xenopus oocytes (NASCO) potassium currents through the alpha pore (Iα) were recorded with the two electrode voltage-clamp technique making use of a TURBO TEC-05× amplifier (npi electronic GmbH). Currents were filtered at 10 kHz and sampled at 20 kHz. The bath solution contained (in mM): NaCl 96, KCl 2, CaCl2 1, MgCl2 1 and HEPES 5 (pH 7.5). Voltage-recording and current-injecting microelectrodes were filled with 3 M KCl and pulled to have resistances between 0.2 and 1 MΩ (see Stork et al., 2007). The pClamp software package v.10.1 (Molecular Devices, Inc.) was used for data acquisition and analysis.
# Recording of alpha currents (Iα): Pulses of 100 ms were applied from ˜60 to +60 mV in 10 mV steps at 1 Hz from a holding potential of ˜80 mV to the Kv2.1 channel constructs to measure alpha currents (Iα). Passive leak currents were subtracted online using a P/4 procedure: pClamp software generates a series of scaled-down replica sweeps of the main stimulus waveform. […] The cell's response to the subsweeps is used to calculate the degree of passive cellular current leak. This is then subtracted from acquired data on the associated input signal. Recording of omega currents (Iω): Pulses of 10 ms were applied from a holding potential of ˜80 to ˜300 mV in 20 mV steps at 0.3 Hz to the Kv2.1 channel constructs. Iω were recorded without leak subtraction.
# AgTx2 (Sigma Aldrich) was reconstituted according to manufacturer's instructions with 10 mM Tris, pH 7.5, containing 100 mM sodium chloride, 0.1% bovine serum albumin, and 1 mM EDTA. LaCl3 was from Sigma Aldrich; MTSEA, MTSES and MTSET were from Biotium.
# La^3+, AgTx2, MTSEA, MTSES and MTSET and were applied to Xenopus oocytes by means of a fast perfusion technique (ScreeningTool as described by Baburin et al., 2006). Origin software v.7.0 (OriginLab Corp.) was employed for data analysis. Inhibition of inward currents was defined as 1−Iω,drug/Iω,control, where Iω,drug is the current response in the presence of a given concentration of lanthanum (La^3+) and Iω, control is the control current through the omega pore. The concentration-inhibition curve was fitted using the Hill equation: Iω,drug/Iω,control=A+[…] where IC50 is the concentration at which Iω inhibition is half-maximal, C is the applied La^3+ concentration, A is the fraction of Iω current that blocked and nH is the Hill coefficient. Data are given as mean±SE (n=number of experiments).
# [3] = biological target: T1, Kv2.1 (Homo sapiens, UniProt Q14721); conditions: cited from earlier work; for IC50: Table 5, read-out: IC50, channel Kv2.1
# T1 sequence (Q14721 1-858): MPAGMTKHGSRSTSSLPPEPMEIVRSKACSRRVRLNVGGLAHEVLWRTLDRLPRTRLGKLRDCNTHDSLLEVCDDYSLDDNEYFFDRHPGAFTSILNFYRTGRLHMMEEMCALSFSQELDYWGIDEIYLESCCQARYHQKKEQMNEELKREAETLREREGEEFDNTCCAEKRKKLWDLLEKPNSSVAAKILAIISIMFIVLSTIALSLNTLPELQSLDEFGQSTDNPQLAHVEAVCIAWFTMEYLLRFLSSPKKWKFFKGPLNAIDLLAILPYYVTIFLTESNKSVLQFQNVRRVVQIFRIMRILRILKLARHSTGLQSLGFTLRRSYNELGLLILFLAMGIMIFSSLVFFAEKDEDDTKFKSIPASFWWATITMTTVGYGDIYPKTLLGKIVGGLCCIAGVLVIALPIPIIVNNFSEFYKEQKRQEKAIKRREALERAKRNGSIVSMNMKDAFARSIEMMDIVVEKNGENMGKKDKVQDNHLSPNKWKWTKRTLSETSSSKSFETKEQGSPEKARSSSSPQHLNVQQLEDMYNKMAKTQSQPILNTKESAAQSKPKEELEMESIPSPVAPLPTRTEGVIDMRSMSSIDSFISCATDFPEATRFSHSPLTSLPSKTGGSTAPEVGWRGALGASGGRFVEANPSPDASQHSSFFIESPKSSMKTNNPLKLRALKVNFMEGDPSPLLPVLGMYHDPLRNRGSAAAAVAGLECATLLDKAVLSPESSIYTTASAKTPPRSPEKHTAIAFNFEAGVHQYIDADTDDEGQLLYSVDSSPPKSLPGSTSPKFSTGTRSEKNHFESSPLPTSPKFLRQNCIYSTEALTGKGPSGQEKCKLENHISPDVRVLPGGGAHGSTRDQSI
# Chain of Kv1.3 (P22001 whole entry): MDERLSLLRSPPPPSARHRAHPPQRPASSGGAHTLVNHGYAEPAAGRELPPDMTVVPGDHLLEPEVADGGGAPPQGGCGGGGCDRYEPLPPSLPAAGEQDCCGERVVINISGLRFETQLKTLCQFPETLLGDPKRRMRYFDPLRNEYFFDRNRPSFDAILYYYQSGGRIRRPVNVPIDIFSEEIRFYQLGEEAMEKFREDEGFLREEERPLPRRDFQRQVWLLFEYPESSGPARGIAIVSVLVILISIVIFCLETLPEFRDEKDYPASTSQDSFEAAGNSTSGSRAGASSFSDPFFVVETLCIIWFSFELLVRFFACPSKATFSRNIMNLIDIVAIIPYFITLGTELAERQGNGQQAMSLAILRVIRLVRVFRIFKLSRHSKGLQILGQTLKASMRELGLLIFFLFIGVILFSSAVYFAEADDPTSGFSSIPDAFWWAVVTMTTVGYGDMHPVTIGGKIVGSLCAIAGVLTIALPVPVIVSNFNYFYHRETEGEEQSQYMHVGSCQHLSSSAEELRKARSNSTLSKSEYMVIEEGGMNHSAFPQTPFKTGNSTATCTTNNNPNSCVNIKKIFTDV
Substance,"IC50 ([1]; Table 3, read-out: IC50 Values of Kv1.3 ion channel modulating agent) [nM]","IC50 ([1]; Table 5, read-out: IC50, channel Kv1.3) [nM]",Sensitivity of Kv1.3 to the scorpion toxin ([1]; text b541),"Inhibition of inward currents at negative potentials (Iω) ([2]; 10 nM AgTx2, after 5 minutes)",IC50 [3] [nM],Sensitivity of Kv2.1 to the scorpion toxin ([3]; text b541),"IC50, channel Kv1.3 ([1]; Table 5, result in words)","Effect on omega current (Iω) ([2]; 100 nM GxTx-1E, 5 minutes application)"
Agitotoxin-2 (GVPINVSCTGSPQCIKPCKDAGMRFGKCMNRKCHCTPK) [AgTx2],0.004,0.004,sensitive,not inhibited,> 2000,insensitive,,
Guangxitoxin (EGECGGFWWKCGSGKPACCPKYVCSPKWGLCNFPMP) [GxTx-1E],,,,,2,,No effect,enhanced
